In article PMC9274624:

Experiments:
Experiment in all cases: SPR
[1] = target: rabbit ACE2 extracellular domain (residues 1-740) fused with the Fc domain of mouse IgG (rabbit) (UniProt G1TEF4)
[2] = target: fulvous fruit bat ACE2 extracellular domain (residues 1-740) fused with the Fc domain of mouse IgG (fulvous fruit bat)
[3] = target: little brown bat ACE2 extracellular domain (residues 1-740) fused with the Fc domain of mouse IgG (little brown bat) (UniProt G1PXH7)
[4] = target: mink ACE2 extracellular domain (residues 1-740) fused with the Fc domain of mouse IgG (mink)
[5] = target: horse ACE2 extracellular domain (residues 1-740) fused with the Fc domain of mouse IgG (horse) (UniProt F6V9L3)
[6] = target: dog ACE2 extracellular domain (residues 1-740) fused with the Fc domain of mouse IgG (dog)
[7] = target: cat ACE2 extracellular domain (residues 1-740) fused with the Fc domain of mouse IgG (cat) (UniProt Q56H28)
[8] = target: bovine ACE2 extracellular domain (residues 1-740) fused with the Fc domain of mouse IgG (bovine) (UniProt Q58DD0)
[9] = target: goat ACE2 extracellular domain (residues 1-740) fused with the Fc domain of mouse IgG (goat)
[10] = target: wild Bactrian camel ACE2 extracellular domain (residues 1-740) fused with the Fc domain of mouse IgG (wild Bactrian camel)
[11] = target: big-eared horseshoe bat ACE2 extracellular domain (residues 1-740) fused with the Fc domain of mouse IgG (big-eared horseshoe bat)
[12] = target: pig ACE2 extracellular domain (residues 1-740) fused with the Fc domain of mouse IgG (pig) (UniProt K7GLM4)
[13] = target: monkey ACE2 extracellular domain (residues 1-740) fused with the Fc domain of mouse IgG (monkey) (UniProt F7AH40)
[14] = target: sheep ACE2 extracellular domain (residues 1-740) fused with the Fc domain of mouse IgG (sheep)
[15] = target: raccoon dog ACE2 extracellular domain (residues 1-740) fused with the Fc domain of mouse IgG (raccoon dog) (UniProt B4XEP4)
[16] = target: alpaca ACE2 extracellular domain (residues 1-740) fused with the Fc domain of mouse IgG (alpaca)
[17] = target: fox ACE2 extracellular domain (residues 1-740) fused with the Fc domain of mouse IgG (fox)

## SARS-CoV-2 prototype RBD (residues 319-541) (from UniProt P0DTC2 319-541) (domain or fragment)
[1]
  Kd: 48.1 nM
[2]
  Kd: 157 nM
[3]
  Kd: 130 nM
[4]
  Kd: 305 nM
[5]
  Kd: 221 nM
[6]
  Kd: 101 nM
[7]
  Kd: 99 nM
[8]
  Kd: 181 nM
[9]
  Kd: 214 nM
[10]
  Kd: 104 nM
[11]
  Kd: 677 nM
[12]
  Kd: 139 nM
[13]
  Kd: 22 nM
[14]
  Kd: 174 nM
[15]
  Kd: 80 nM
[16]
  Kd: 11800 nM
[17]
  Kd: 56.2 nM
